Reference: paper PMC4728560 (Scientific Reports, 2016)
“Also recorded” adds a separate entry of the source.

What was measured:
Bcl-xL [1] = target: T1, Bcl-xL (Homo sapiens, UniProt Q07817, DEL27-82); assay: Heterocomplex formation with Bcl-xL (native MS, SEC-MALS, gel filtration); type: binding; settings: native MS: Bcl-xL(Δ27-81ΔCT), equimolar 100 μM, 30 °C, checked at 5 μM (for TCTP-R21A)
T1 construct: one containing the fragment 1-26, and the other the fragment 81-209; 6His (N, cleaved yes); made in house; host or cells: Escherichia coli BL21 (DE3) pRARE2
Procedure: When not specified, proteins tested for binding experiments were mixed at 100 μM, dialyzed against 10 mM CHES pH 9, 50 mM NaCl, 1 mM DTT or TCEP, depending on the analysis, and heated overnight at 30 °C.
For binding experiments, 100 to 200PL of protein mixture were loaded on a size exclusion chromatography (S200, GE Healthcare) column, while elution profiles were measured by UV absorption at 280 nm.
SEC-MALS experiments were performed on a multi-angle light scattering detector (miniDAWN TREOS, Wyatt Technologies) coupled in-line with SEC and an interferometric refractometer (Optilab T-rEX, Wyatt Technologies). See Supplementary Information for full details.
Prior to any mass spectrometry experiment, protein buffer was exchanged twice against a 50 mM ammonium acetate (NH4Ac) solution at pH 9.0 using microcentrifuge gel filtration columns (Zeba 0.5 ml, Thermo Scientific, Rockford, IL). Protein concentration was determined spectrophotometrically. […]
Supplementary Table 1. Measured molecular weights in denaturing conditions Sample Theoretical molecular Measured molecular Associated mass (Da) mass (Da) species […]
Gel filtration. For binding experiments, 100 to 200PL of protein mixture were loaded on a size exclusion chromatography (S200, GE Healthcare) column, while elution profiles were measured by UV absorption at 280nm. […]

Bcl-xL [2] = assay: In cellulo BRET between Luciferase-fused TCTP and YFP-fused Bcl-xL; type: cell-based; settings: MCF-7 cells; donor Luciferase-fused TCTP, acceptor YFP-fused Bcl-xL
Excerpt: See Supplementary Information for full details.
Twenty-four hours later, cells
Protein expression and purification

[3] = test system: Bcl-xL inhibition of cBid/Bax; assay: In vitro reconstitution liposome permeabilization, cBid/Bax with Bcl-xL; type: biochemical; settings: ANTS/DPX liposomes, 100 nM Bax, 20 nM cBid, pre-incubation pH 9, 45 min, 37 °C, 5 h, pH 7
Excerpt: (§1) This purified assay system measures direct interactions in which full-length untagged Bcl-xL inhibits permeabilization by binding full-length caspase 8 cleaved Bid (cBid) and/or full-length untagged Bax, thereby preventing Bax oligomerization in membranes. […] In these assays liposome permeabilization by activated Bax releases the entrapped fluorophore/quencher pair 8-aminonaphthalene-1,3,6-trisulfonic acid (ANTS)/p-xylene-bispyridinium (DPX), resulting in a measurable increase of fluorescence.
(§2) (A–E) in vitro reconstitution assay on liposome permeabilization. […] The treated Bcl-xL was then added to reactions containing ANTS-DPX liposomes, 100 nM Bax and 20 nM of either cBid (A,B) or cBidmt1(C,D) at pH 7. Liposome permeabilization was quantified by fluorescence after 5h incubation at 37 °C where 100% release was defined as the fluorescence change due to lipid solubilization with 1% Triton X-100. […] Error bars, std. dev. n = 3. […] Cyto c extra-mito: in the supernatant, analysed by Western blot. […]
(§3) Figure 10 A,B) or cBid mt1 (Supplementary Figure 10 C,D) at pH 7 to quantify the activity of Bcl-xL inhibition of liposome permeablization. […]
(§4) then added to reactions containing ANTS-DPX liposomes, 100nM Bax and 20nM of either c Bid (A, C) or cBid mt1(B, D) at pH 7 and liposome permeabilization was quantified by fluorescence […]

[4] = test system: Bcl-xL inhibition of cBidmt1/Bax; assay: In vitro reconstitution liposome permeabilization, cBidmt1/Bax with Bcl-xL; type: biochemical; settings: ANTS/DPX liposomes, 100 nM Bax, 20 nM cBidmt1, pre-incubation pH 9, 45 min, 37 °C, 5 h, pH 7
Excerpt: as §1, §2, §3, §4

[5] = test system: Bax mediated cytochrome c release, Bcl-xL; assay: Cytochrome c release from purified mitochondria by tBid and Bax in the presence of Bcl-xL; type: biochemical; settings: mouse liver mitochondria; 5 nM tBid, 50 nM Bax, 300 nM Bcl-xL; 15 min, 30 °C; Western blot
Procedure: as §2, with “3. To compare between the TCTP treated groups and the Control group statistically, two-way ANOVA test was performed for (A–D) and one-way ANOVA test was performed for (E). […] Colored asterisks above each data point indicate the statistical significance (*p < 0.05; **p < 0.01, no asterisks if p ≥ 0.05). A complete statistical analysis is provided in Supplementary Table 2–4.” for “3.”
to highlight the pre-incubation), pH 9, 30 C° before being added to the mitochondria at their final concentrations. […] Cytochrome c was detected in the mitochondrial fraction (Cyto c intra-mito) or in the supernatant (Cyto c extra-mito) by Western blot analysis. […]
Cytochrome c release assay. […] Mitochondrial pellets and the corresponding supernatant fractions were subjected to SDS-polyacrylamide gel electrophoresis and analyzed by Western blotting for cytochrome c.

T1 sequence (Q07817 with tags, fused parts or gaps DEL27-82): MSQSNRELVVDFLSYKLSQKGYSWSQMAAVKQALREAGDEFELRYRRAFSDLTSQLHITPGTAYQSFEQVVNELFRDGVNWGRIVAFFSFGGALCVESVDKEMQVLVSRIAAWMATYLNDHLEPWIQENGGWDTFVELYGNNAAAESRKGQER

B1: TCTP R21A: full-length TCTP protein bearing the mutation R21A (protein)
chain: MIIYRDLISHDEMFSDIYKIAEIADGLCLEVEGKMVSRTEGNIDDSLIGGNASAEGPEGEGTESTVITGVDIVMNHHLQETSFTKEAYKKYIKDYMKSIKGKLEEQRPERVKPFMTGAAEQIKHILANFKNYQFFIGENMNPDGMVALLDYREDGVTPYMIFFKDGLEMEKC
complex formation with Bcl-xL (Bcl-xL [1]): no peak; also recorded: no complex formation
BRET signals with Bcl-xL (Bcl-xL [2]): lack of binding
effect on Bcl-xL inhibition of cBid/Bax-mediated liposome permeabilization [3]: no effect on Bcl-xL activity
effect on Bcl-xL inhibition of cBidmt1/Bax-mediated liposome permeabilization [4]: no effect on Bcl-xL activity
potentiation of Bcl-xL (cytochrome c release) [5]: do not potentiate Bcl-xL
